This is an account of results in patent publication US12162911B2, “Pulmonary administration of pyocins for treating bacterial respiratory infections” (priority 2014, dated 2024).

The test system of one test is P. aeruginosa. Conditions: in vivo; cited from earlier work.
The next test has as its system P. aeruginosa P5. In words: Pyocin activity in vitro against P. aeruginosa P5. It counts as cell-based, Pseudomonas aeruginosa. As for the experimental part: (§1) Pyocin sensitivity assays: overlay spot plate method. Soft agar overlay spot plates were performed using the method of ^35. 150 μl of test strain culture at OD600 nm=0.6 was added to 6 ml of 0.8% soft agar and poured over an LB agar plate. 5 μl of bacteriocin, lung homogenate or blood at varying concentrations was spotted onto the plates and incubated for 24 h at 37° C.
(§2) Since strains of P. aeruginosa are phenotypically diverse, we tested the efficacy of the pyocins against three additional isolates: P. aeruginosa P17 and P. aeruginosa P5 (mucoid), both from cystic fibrosis patients and P. aeruginosa E2, an environmental isolate.

In test [1] the test system is P. aeruginosa E2. In words: Pyocin activity in vitro against P. aeruginosa E2. The format is cell-based. As for the experimental part:
as §1, §2

Another test concerns P. aeruginosa P17. In words: Mouse model of acute lung infection, P. aeruginosa P17. The format is in vivo, Pseudomonas aeruginosa. Conditions: for survival / protection: pyocin 3 mg ml^−1, endpoint 24 h, infected controls culled at 4 h. As for the experimental part:
(§3) Model of acute lung infection. Female C57/BL6 mice were inoculated intranasally with 25 μl of bacterial culture containing approximately 10^7 CFU of the selected P. aeruginosa strain^36. Antibiotic treatments were administered at either 6 h pre-infection or 1 h post-infection and were administered only once. Pyocins or tobramycin dissolved in PBS were administered via intranasal administration as described above. Two different end-points were used in these experiments. In order to determine a reduction in the bacterial load of the lungs compared to the untreated controls, all mice in the experiment were culled by carbon dioxide asphyxiation at the same time; 4-6 h post infection. To determine if mice could survive infection after pyocin or tobramycin treatment, mice were monitored closely, culled by carbon dioxide asphyxiation when required as determined by a scoring system or culled at the pre-determined 24 h time point. Uninfected mice, treated with pyocins, were used as controls in the first series of experiments in order to ensure no adverse effects from pyocin treatment. These controls were stopped in later experiments in order to reduce the number of animals used, once it was clear that the pyocins were not harmful. For CFU determination, lungs were removed aseptically and kept on ice in 750 μl of PBS until homogenised. Serial 10-fold dilutions of the homogenised lung were plated on Pseudomonas selective agar (20 g peptone, 1.5 g K2HPO4, 1.5 g MgSO4·7H2O, 10 ml glycerol, 15 g agar, 0.025 g Irgasan per litre) and incubated at 37° C. for 24 h and then room temperature for 24 h before the colonies were counted.
(§4) Since strains of P. aeruginosa are phenotypically diverse, we tested the efficacy of the pyocins against three additional isolates: P. aeruginosa P17 and P. aeruginosa P5 (mucoid), both from cystic fibrosis patients and P. aeruginosa E2, an environmental isolate. Pyocin S2 was not active against P. aeruginosa P5 or P. aeruginosa E2 in vitro therefore was not used to treat these strains in vivo and similarly pyocin L1 was not used against P. aeruginosa P17. […] Lung homogenates from P. aeruginosa E2-infected AP41-treated mice contained high levels of viable bacteria, reduced only 10-fold relative to control mice (Table 1). […] Thus, pyocins show strong efficacy against diverse strains of P. aeruginosa with pyocin S5 treatment displaying the largest effect on reducing bacterial load.

In test [2] the test system is P8AP41T. Description: Mouse model of acute lung infection, AP41 tolerant strain P8AP41T. The format is in vivo, Pseudomonas aeruginosa. Conditions: 3 mg ml^−1 1 h post-infection; for bacterial numbers in lung homogenates: 24 h (FIG. 3b); for survival: endpoint 24 h, PBS controls culled 6 h post-infection (FIG. 3b). As to the method:
as §3
(§5) In order to determine if pyocin tolerance or resistance was acquired upon pyocin treatment in vivo, viable bacteria recovered from mice that survived infection to the 24 h end-point, in all experiments discussed in this work, were tested for pyocin susceptibility. From these experiments no pyocin resistant colonies were isolated. […] Importantly, sensitivity to pyocins S5 and L1 were unaffected in vitro in this pyocin AP41-tolerant strain (FIG. 3a) and this was also shown to be the case in vivo when mice were infected with P8AP41T.

In a further test the test system is P. aeruginosa P8. In words: Mouse model of acute lung infection, P. aeruginosa P8. It counts as in vivo, Pseudomonas aeruginosa. The settings on record: for survival: 300 μg ml^−1 and 30 μg ml^−1 (both concentrations), endpoint 24 h post-infection; for reduction of bacterial load in lung: 3 mg ml^−1 intranasal 1 h post-infection, culled 4.5 h post-infection (FIG. 1c); for reduction of bacterial numbers in lung: C57/BL6 mice, 3 mg ml^−1 intranasal 6 h pre-infection, culled 4 h post-infection (FIG. 1a); for Lowest active concentration tested: lowest concentration tested with which the treated mice survived to 24 h; for Corresponding molarity: molarity of lowest active concentration tested. As for the experimental part: Study design. […] For all experiments 6 week-old, female, murine pathogen free C57/BL6 mice weighing 15-21 g were used (Charles Rivers Laboratories, UK). All mice received food and water ad libitum and were housed in groups during the experiments. Power calculations were used to predetermine sample size (n=6, for all treatment experiments). Mice were culled when required as determined by a scoring system or culled at the pre-determined 24 h time point. All mice, including outliers were included in the statistical analysis. Experiments were either carried out once only or repeated once (defined for each experiment).
as §3

Test [3] concerns P. aeruginosa E2. In words: Mouse model of acute lung infection, P. aeruginosa E2. It counts as in vivo, Pseudomonas aeruginosa. As to the method:
as §3, §4

For test [4], the system named is P. aeruginosa P5 (mucoid). Description: Mouse model of acute lung infection, P. aeruginosa P5. The format is in vivo, Pseudomonas aeruginosa. As to the method: as §3, §4
Test [5] concerns collection of diverse environmental and clinical isolates. In words: Activity against a collection of diverse environmental and clinical isolates. It counts as cell-based, Pseudomonas aeruginosa.
Test [6] has as its system P8AP41T. Description: Pyocin sensitivity in vitro (spot tests) of strain P8AP41T. It counts as cell-based, Pseudomonas aeruginosa. As to the method:
as §1, §5

[7] abbreviates: pyocin 3 mg ml^−1, treated mice survived to 24 h, no treatment 4.4 × 10^5 CFU/lung.

B1: Pyocin S2: S-type pyocin, SEQ ID NO: 1; targeting domain binds FpvAI, effector has DNase activity (protein, listed as Pseudomonas aeruginosa)
chain: MAVNDYEPGSMVITHVQGGGRDIIQYIPARSSYGTPPFVPPGPSPYVGTGMQEYRKLRSTLDKSHSELKKNLKNETLKEVDELKSEAGLPGKAVSANDIRDEKSIVDALMDAKAKSLKAIEDRPANLYTASDFPQKSESMYQSQLLASRKFYGEFLDRHMSELAKAYSADIYKAQIAILKQTSQELENKARSLEAEAQRAAAEVEADYKARKANVEKKVQSELDQAGNALPQLTNPTPEQWLERATQLVTQAIANKKKLQTANNALIAKAPNALEKQKATYNADLLVDEIASLQARLDKLNAETARRKEIARQAAIRAANTYAMPANGSVVATAAGRGLIQVAQGAASLAQAISDAIAVLGRVLASAPSVMAVGFASLTYSSRTAEQWQDQTPDSVRYALGMDAAKLGLPPSVNLNAVAKASGTVDLPMRLTNEARGNTTTLSVVSTDGVSVPKAVPVRMAAYNATTGLYEVTVPSTTAEAPPLILTWTPASPPGNQNPSSTTPVVPKPVPVYEGATLTPVKATPETYPGVITLPEDLIIGFPADSGIKPIYVMFRDPRDVPGAATGKGQPVSGNWLGAASQGEGAPIPSQIADKLRGKTFKNWRDFREQFWIAVANDPELSKQFNPGSLAVMRDGGAPYVRESEQAGGRIKIEIHHKVRIADGGGVYNMGNLVAVTPKRHIEIHKGGK
Consider B1, for which the “activity in an invertebrate model of infection” value in the test on P. aeruginosa is on record as “active”. In addition, in the test on P. aeruginosa P5, the activity in vitro entry is “not active”. The activity in vitro result in the test with P. aeruginosa E2 [1] was “not active”. For the same molecule, the survival / protection result with P. aeruginosa P17 is reported as “survived until the 24 h endpoint”. Also, the “bacterial count in lung, P17” value in the test on P. aeruginosa P17 (setting [7]) is reported as “No colonies”. In the test on P8AP41T [2], the “bacterial numbers in lung homogenates” value is reported as “significantly reduced bacterial numbers” and the survival result is recorded as “survived until the endpoint of the experiment at 24 h”. Besides, in the test with P. aeruginosa P8, the survival entry is reported as “survived until the endpoint of the experiment at 24 h post-infection”, the “reduction of bacterial load in lung” value was approximately 80 fold, the “reduction of bacterial numbers in lung” value is recorded as “approximately 25 fold” and the “Lowest active concentration tested” value is 30 µg/mL. Also, the Corresponding molarity in the test with P. aeruginosa P8 is recorded as 358 nM.

B2: Pyocin AP41: S-type pyocin, SEQ ID NO: 18; effector has DNase activity (protein, listed as Pseudomonas aeruginosa)
chain: MSDVFDLGSMTTVATATGQYSFYTPPPPTPIPYLTYIARPGINKFDLPEGAKIKDLIKRYQYIGSQIPAAIMIRGVQEEIKKSTNTALANVGAIVDGELAYLASQKKEKLNPAEATPLQMASAEKAAAVELLASKQKELADARTIANAFFGYDPLTVNYVNVMNEIYGRREDKDFSFDNWSKSYSAAQKIRLIEAKISVLNSRSSALDGKVAELTRLQRLEDAQHAAEAARQTEAERLAQEQRQAEARRQAEEARRQAEAQRQAELQRLAEAEAKRVAEAEKKRQDEINARLQAIVVSESEAKRIEEIYKRLEEQDKISNPTVTTPPAVDAGSRVDDALAHTGTRVTSGGETGATGGSGRDVDTGTGQGGITARPVDVGSVSIPDRRDPKIPDQPRRDLGSLVPTFPDFPTFPSFPGVGVPAAAKPLIPAGGGAASVSRTLKTAVDLLSVARKTPGAMLGQVAAVVATMAVSSFWPKLNNGERQASFAIPVAELSPPLAVDWQAIAAAKGTVDLPYRLKTLNVDGSIQIIAVPTEPGSAAVPVRALTLDSASGTYKYTTTGPGGGTILVTPDTPPGQIDPSSSTPAVPRGPLIMPGTLLIPKEPQIESYPELDQREFNDGIYVYPEDSGIPPLYIVYRDPRDEPGVATGNGQPVTGNWLAGASQGDGVPIPSQIADQLRGKEFKSWRDFREQFWMAVSKDPSALENLSPSNRYFVSQGLAPYAVPEEHLGSKEKFEIHHVVPLESGGALYNIDNLVIVTPKRHSEIHKELKLKRKEK
For the molecule B2, the “bacterial count in lung, P17” value in the test on P. aeruginosa P17 (1 mouse that coughed up the treatment, culled at 4 h post-infection) was “^+1 mouse coughed up AP41 treatment and was culled at 4 h post-infection, bacterial count 1.3 × 10^5 CFU/lung”. Besides, in the test with P. aeruginosa P17, the survival / protection entry was “five out of six”. The “bacterial count in lung, P17” value in the test with P. aeruginosa P17 (setting [7]) was “No colonies”. The “reduction of viable bacteria in lung homogenates relative to control mice” value with P. aeruginosa E2 [3] (pyocin 3 mg ml^−1, culled at 5.5 h post-infection) came out at 10 fold. The survival / protection entry with P. aeruginosa E2 [3] (pyocin 3 mg ml^−1, endpoint 24 h, infected controls culled at 5.5 h) is “failed to afford protection”. The “bacterial count in lung, E2” value in the test with P. aeruginosa E2 [3] (pyocin 3 mg ml^−1, mice culled at same time as control (5.5 h post-infection)) is given as 1.3 × 10^4 CFU/lung. Moreover, the survival / protection result in test [4] (pyocin 3 mg ml^−1, endpoint 24 h, infected controls culled at 4.5 h) is on record as “successful”. Moreover, in [4] (pyocin 3 mg ml^−1, treated mice survived to 24 h, no treatment 1.7 × 10^5 CFU/lung), the “bacterial count in lung, P5” value was “No colonies”. Moreover, in the test on P8AP41T [2], the “bacterial numbers in lung homogenates” value is recorded as “significantly reduced bacterial numbers” and the survival entry was “survived until the endpoint of the experiment at 24 h”. For the same molecule, in the test with P. aeruginosa P8, the survival result is recorded as “survived until the endpoint of the experiment at 24 h post-infection”, the “reduction of bacterial load in lung” value is listed as approximately 130 fold, the “reduction of bacterial numbers in lung” value is approximately 650 fold and the “Lowest active concentration tested” value was determined as 30 µg/mL. Further, the Corresponding molarity in the test on P. aeruginosa P8 was determined as 319 nM. For the same molecule, the “strains against which active” value in test [5] is reported as 87%. In addition, the “increased tolerance of isolate P8AP41T” value in the test with P8AP41T [6] (single isolate from pyocin AP41 (3 mg ml^−1 post-infection) treated bacteria) is recorded as “approximately 1000 fold”. The “susceptibility of P8AP41T during infection” value in the test with P8AP41T [6] (strain recovered from untreated control mice (P8AP41T*), FIG. 3a) is “remained tolerant”.
